Measurements as given in publication PMC11032371.

What was measured:
K48-diUb = K48-diUb (UniProt P0CG48); experiment: ITC; 293 K; 50 mM HEPES pH 7.4, 50 mM NaCl, 0.5 mM TCEP; cell 50–100 μM, syringe usually 10-fold; 20 injections of 2 μl; averages of at least two experiments; which partner was in the syringe not stated
K63-diUb = K63-diUb (UniProt P0CG48); experiment: as above

N4BP1 (850–893) (from UniProt Q6A037 850-893) (domain or fragment)
Kd (K48-diUb): 47 µM
dH (K48-diUb): -5.87 kcal/mol
stoichiometry N (K48-diUb): 1.29
Kd (K63-diUb): 16.7 µM
dH (K63-diUb): -5.88 kcal/mol
stoichiometry N (K63-diUb): 1.71
